Series [1] has as its target MBD2[MBD] (human, UniProt Q9UBB5 139-224). The series is described as follows: EMSA; 2 uM protein; poly(dI-dC); BLI: 150 mM NaCl, 10 mM HEPES pH 8.0, 0.05% Tween20, poly(dI-dC) 1 ug/ml; MBD2 EMSA: 20 mM HEPES pH 7.9, 150 mM KCl, 8% Ficoll, 1 mM EDTA, 0.5 mM DTT, poly(dI-dC) 40 ng/ul, RT; N-term EMSA: 10 mM Tris-HCl pH 7.5, 150 mM KCl, 5% glycerol, 0.1 mM EDTA, 0.1 mg/ml BSA, 1 ug poly(dA-dT), on ice; pull-down at 4 C. As to conditions: protein: recombinant; tags: N-terminal His6 removed by TEV; residual N-terminal SM; label: 5'-FAM on strand 1; 19 bp, 5' overhang 1 nt each end. Background: Mobility shift assays separate free from complexed probe on a gel.

The target of series [2] is T1, MeCP2[MBD] (mouse (fragment sequence identical in …, UniProt Q9Z2D6 77-167)). The series is described as follows: BLI; poly(dI-dC) 1 ug/ml; BLI: 150 mM NaCl, 10 mM HEPES pH 8.0, 0.05% Tween20, poly(dI-dC) 1 ug/ml; MBD2 EMSA: 20 mM HEPES pH 7.9, 150 mM KCl, 8% Ficoll, 1 mM EDTA, 0.5 mM DTT, poly(dI-dC) 40 ng/ul, RT; N-term EMSA: 10 mM Tris-HCl pH 7.5, 150 mM KCl, 5% glycerol, 0.1 mM EDTA, 0.1 mg/ml BSA, 1 ug poly(dA-dT), on ice; pull-down at 4 C. Particulars: protein: recombinant; tags: pET28 (NdeI/EcoRI), His tag (Ni-NTA purified; tag removal not mentioned); label: 5'-biotin on strand 1; 19 bp, 5' overhang 1 nt each end. On the technique in general: In BLI a coated tip is dipped into the sample, and binding shifts an interference pattern.

The target of series [3] is MM2[N-term] (mouse, UniProt Q9Z2D6 1-93+Q9Z2E1:153-217+165-205, internal_change). The series is described as follows: EMSA; 0-4.5 uM protein; BLI: 150 mM NaCl, 10 mM HEPES pH 8.0, 0.05% Tween20, poly(dI-dC) 1 ug/ml; MBD2 EMSA: 20 mM HEPES pH 7.9, 150 mM KCl, 8% Ficoll, 1 mM EDTA, 0.5 mM DTT, poly(dI-dC) 40 ng/ul, RT; N-term EMSA: 10 mM Tris-HCl pH 7.5, 150 mM KCl, 5% glycerol, 0.1 mM EDTA, 0.1 mg/ml BSA, 1 ug poly(dA-dT), on ice; pull-down at 4 C. Particulars: protein: recombinant; tags: C-terminal 6xHis; label: 32P (T4 PNK); blunt.

In series [4] the target is T2, MeCP2[N-term] WT (mouse, UniProt Q9Z2D6 1-205). Briefly: EMSA; 0-4.5 uM protein; not different from mCG (p = 0.613); BLI: 150 mM NaCl, 10 mM HEPES pH 8.0, 0.05% Tween20, poly(dI-dC) 1 ug/ml; MBD2 EMSA: 20 mM HEPES pH 7.9, 150 mM KCl, 8% Ficoll, 1 mM EDTA, 0.5 mM DTT, poly(dI-dC) 40 ng/ul, RT; N-term EMSA: 10 mM Tris-HCl pH 7.5, 150 mM KCl, 5% glycerol, 0.1 mM EDTA, 0.1 mg/ml BSA, 1 ug poly(dA-dT), on ice; pull-down at 4 C. Particulars: protein: recombinant; tags: C-terminal 6xHis; label: 32P (T4 PNK); blunt.

Series [5] addresses T2, MeCP2[N-term] WT. Briefly: EMSA; 0-4.5 uM protein; BLI: 150 mM NaCl, 10 mM HEPES pH 8.0, 0.05% Tween20, poly(dI-dC) 1 ug/ml; MBD2 EMSA: 20 mM HEPES pH 7.9, 150 mM KCl, 8% Ficoll, 1 mM EDTA, 0.5 mM DTT, poly(dI-dC) 40 ng/ul, RT; N-term EMSA: 10 mM Tris-HCl pH 7.5, 150 mM KCl, 5% glycerol, 0.1 mM EDTA, 0.1 mg/ml BSA, 1 ug poly(dA-dT), on ice; pull-down at 4 C. Particulars: protein: recombinant; tags: C-terminal 6xHis; label: 32P (T4 PNK); blunt.

The target in series [6] is T1, MeCP2[MBD]. Briefly: BLI; poly(dI-dC) 1 ug/ml; main text prints 63.17; BLI: 150 mM NaCl, 10 mM HEPES pH 8.0, 0.05% Tween20, poly(dI-dC) 1 ug/ml; MBD2 EMSA: 20 mM HEPES pH 7.9, 150 mM KCl, 8% Ficoll, 1 mM EDTA, 0.5 mM DTT, poly(dI-dC) 40 ng/ul, RT; N-term EMSA: 10 mM Tris-HCl pH 7.5, 150 mM KCl, 5% glycerol, 0.1 mM EDTA, 0.1 mg/ml BSA, 1 ug poly(dA-dT), on ice; pull-down at 4 C. Particulars: protein: recombinant; tags: pET28 (NdeI/EcoRI), His tag (Ni-NTA purified; tag removal not mentioned); label: 5'-biotin on strand 1; 19 bp, 5' overhang 1 nt each end.

From paper PMC7980222, “Neuronal non-CG methylation is an essential target for MeCP2 function” come the findings set out here.

Positions count from the first letter of the chain named.

Sequence of MBD2[MBD] (Q9UBB5 139-224): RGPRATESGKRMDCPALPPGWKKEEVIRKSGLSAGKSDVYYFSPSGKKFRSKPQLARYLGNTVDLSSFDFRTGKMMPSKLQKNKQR

B1: FAM mCG probe (dsDNA)
DNA 1: TCTGGAACGGAATTCTTCTA
DNA 2: ATAGAAGAATTCCGTTCCAG
modifications: 5mC at CG: C8 of strand 1 and probably C13 of strand 2 (underlining lost in text)
Turning to B1, the binding result in series [1] was “binds”.

B2: BLI mCAC probe (dsDNA)
DNA 1: TCTGGAACACAATTCTTCTA
DNA 2: ATAGAAGAATTGTGTTCCAG
modifications: 5mC at CAC: C8 of strand 1 (underlining lost in text)
As usually defined, the Kd is the free concentration of one partner at which half of the binding sites on the other are occupied at equilibrium, for simple one-to-one binding. As to B2, the Kd in series [2] is 13.9 nM.

B3: Bdnf mCAC probe (dsDNA)
DNA 1: AAGCATGCAATGCCCTGGAACACAATTCTTCTAATAAAAGATGTATCATTTTAAATGC
DNA 2: GCATTTAAAATGATACATCTTTTATTAGAAGAATTGTGTTCCAGGGCATTGCATGCTT
modifications: 5mC at central CAC: C21 of strand 1 (underlining lost in text)
On to B3, for which the binding result in series [3] is “no binding”; in series [4], “binds”.

B4: Bdnf mCG probe (dsDNA)
DNA 1: B3 DNA 1 with A22G, C23G
DNA 2: B3 DNA 2 with G36C, T37C
modifications: 5mC at central CG: C21 of strand 1 and probably C37 of strand 2 (underlining lost in text)
Consider B4, for which the binding result in series [5] was “binds”.

B5: BLI mCAT probe (dsDNA)
DNA 1: TCTGGAACATAATTCTTCTA
DNA 2: ATAGAAGAATTATGTTCCAG
modifications: 5mC at CAT: C8 of strand 1 (underlining lost in text)
In the case of B5, in series [6], the Kd amounted to 63.7 nM.

B6: BLI mCG probe (dsDNA)
DNA 1: TCTGGAACGGAATTCTTCTA
DNA 2: ATAGAAGAATTCCGTTCCAG
modifications: 5mC at CG: C8 of strand 1 and probably C13 of strand 2 (underlining lost in text)
Regarding B6, the Kd in series [2] is 22.2 nM.
